This is an account of results in US20240360208A1 (Hoffmann-La Roche, published 2024).

Positions count from the first letter of the chain named. Numbers in names are those of the source.

The target of assay [1] is T1, human CCL2 (MCP1) - wild type (wt) (human, UniProt P13500 24-99).
T1 construct: Made in-house or bought (R&D Systems 279-MC), depending on the assay; can form dimers; also called wt human CCL2; WT human CCL2
In words: SPR T200, 37 C, antibody captured, 1:1 model. The protocol: (§1) Antibody clone supernatants were diluted 1:2 in system buffer and were captured for 1 min at 5 μl/min. […] Analyte kinetics were performed at 30 μl/min. As analyte in solution wt human CCL2 or monomeric CCL2 P8A variant CCL2 were used. Analytes were injected at 90 nM highest concentration. The analyte contact time was 3 min and the dissociation time was 10 min. The Biaevaluation software V.3.0 was used according to the instructions of the manufacturer GEHC. A 1:1 binding model with RMAX local was applied to apparently estimate kinetic rates.

The target of assay [2] is T2, human CCL2 (MCP1) - P8A variant (human, UniProt P13500 24-99).
T2 construct: In-house point mutant that cannot dimerise; also called monomeric human CCL2; monomeric CCL2
The experiment in a line: SPR T200, 37 C, antibody captured, 1:1 model. The protocol:
as §1

The target of assay [3] is T1, human CCL2 (MCP1) - wild type (wt). The experiment in a line: cell-based or functional assay.
Assay [4] deals with T2, human CCL2 (MCP1) - P8A variant. In words: number printed beside the row of sensorgrams; the assay and the CCL2 form behind the number are not stated on the sheet (the sensorgrams are on monomeric CCL2).
For assay [5] the target is unchanged. The experiment in a line: number printed over the column of sensorgrams; the assay and the CCL2 form behind the number are not stated on the sheet (the sensorgrams are on monomeric CCL2).
For assay [6], the target named is T1, human CCL2 (MCP1) - wild type (wt). The experiment in a line: SPR, C1 chip, anti-human Fc capture, 25 C, pH 7.4, Langmuir 1:1. How it is done: The sample and system buffer was PBS-T (10 mM phosphate buffered saline including 0.05% Tween20) pH 7.4. The flow cell was set to 25° C.—and the sample block set to 12° C.—and primed with running buffer twice. The bispecific antibody was captured by injecting a 2 μg/ml solution for 60 see at a flow rate of 10 μl/min. Association was measured by injection of human CCL2 (wt) in various concentrations in solution for 150 see at a flow rate of 30 μl/min starting with 30 nM in 1:10 dilutions. The dissociation phase was monitored for up to 1200 sec and triggered by switching from the sample solution to running buffer. […] Bulk refractive index differences were corrected by subtracting the response obtained from a goat anti human IgG Fc surface. Blank injections are also subtracted (=double referencing). For calculation of kinetic parameters, the Langmuir 1:1 model was used.
On the technique in general: In SPR one partner is held on a chip, and binding of the other changes the refractive index at the surface.

Assay [7] has the same target. The experiment in a line: cell-based or functional assay. This is another data set of the same source.
Assay [8] addresses T3, human FcγRIIb receptor on CHO-K1 cells (clone 223) (human, UniProt P31994 43-310).
T3 sequence (looked up): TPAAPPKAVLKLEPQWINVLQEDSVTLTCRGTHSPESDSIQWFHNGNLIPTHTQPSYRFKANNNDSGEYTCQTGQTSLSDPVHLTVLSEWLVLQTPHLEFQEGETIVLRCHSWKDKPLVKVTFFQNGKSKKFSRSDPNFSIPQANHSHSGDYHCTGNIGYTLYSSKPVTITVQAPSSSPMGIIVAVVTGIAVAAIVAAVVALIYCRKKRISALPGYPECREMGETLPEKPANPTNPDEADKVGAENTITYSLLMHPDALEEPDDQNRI
In words: cell-based or functional assay.

The term Kd denotes a measure of binding affinity in units of concentration. A higher Kd goes with weaker binding.

B1: 2F6 (antibody, IgG1, V domains shown)
VH: QSLEESGGGLVQPEGSLTLTCTASGFSFNNNYYMCWVRQAPGKGLEWIGCISTDDSNTHYASWAQGRFTISKASSTALTLQVAGLTVADMATYFCARDAHFTSYGYGFDLWGPGTLVTVSS
VL: DIVMTQTPASVSAAVGGTVSINCRASEDIENLVAWYQQKPGQPPKLLIYQASKLASGVPSRFKGSGSGAEFTLTIGDLESADAATYYCQGDYGSGWIMYSFGGGTDLVVK
notes: also called CCL2-0014
With B1, in assay [1], the Kd is 0.059 nM and the “T1/2” value was 0.867 h. In addition, in assay [2], the Kd stood at 0.091 nM and the “T1/2” value worked out at 0.783 h. In addition, in assay [3], the “THP1 chemotaxis [fold change compared to IgG control]” value was determined as 6.7 fold.

B2: murine 11K2 (antibody, V domains shown)
VH: EVQLQQSGAELVKAGASVKLSCPASGLNIKDTYMHWVKQRPEQGLEWIGRIDPANGNTKFDPKFQGKATITADTSSNTAYLQLSSLTSEDTAVYYCARGVFGFFDYWGQGTTLTVSS
VL: DIQMTQSSSSFSVSLGDRVTITCKATEDIYNRLAWYQQKPGSAPRLLISGATSLETGVPSRFSGSGSGKDYTLSITSLQTEDVATYYCQQFWSAPYTFGGGTKLEIK
notes: also called 11K2m; X-0048
B2: in assay [1], the dissociation constant (Kd) worked out at 0.35 nM and the “T1/2” value is 0.317 h. Also, in assay [2], the Kd stood at 0.011 nM and the “T1/2” value stood at 8.63 h. Further, the “THP1 chemotaxis [fold change compared to IgG control]” value in assay [3] was 6.9 fold.

B3: CNTO888H0625/CNTO888L0616 (antibody, V domains shown)
VH: QVQLVQSGAEVKKPGSSVKVSCKASGGTFSHYGISWVRQAPGQGLEWMGGIIHIFHTANYAQKFQGRVTITADESTSTAYMELSSLRSEDTAVYYCARYDAHYGELDFWGQGTLVTVSS
VL: EIVLTQSPATLSLSPGERATLSCRASQHVSDAYLAWYQQKPGQAPRLLIYDASDRAEGVPARFSGSGSGTDFTLTISSLEPEDFAVYYCHQYIHLHSFTFGQGTKVEIK
notes: also called modified CNTO888 variant (VH H0625 / VL L0616)
Consider B3, for which the “Affinity relative to parent CNTO888” value in assay [4] was found to be 3 X.

B4: CNTO888H0635/CNTO888L0616 (antibody, V domains shown)
VH: B3 VH with I51H, H56G
VL: B3 VL
notes: also called modified CNTO888 variant (VH H0635 / VL L0616)
In the case of B4, the “Affinity relative to parent CNTO888” value in assay [4] turned out to be 3 X.

B5: CNTO888H0634/CNTO888L0616 (antibody, V domains shown)
VH: B3 VH with I34T, H56G
VL: B3 VL
notes: also called modified CNTO888 variant (VH H0634 / VL L0616)
As to B5, the “Affinity relative to parent CNTO888” value in assay [4] worked out at 10 X.

B6: CNTO888H0695/CNTO888L0616 (antibody, V domains shown)
VH: B3 VH with I51V, H53P
VL: B3 VL
notes: also called modified CNTO888 variant (VH H0695 / VL L0616)
Regarding B6, the “Affinity relative to parent CNTO888” value in assay [4] was 1 X.

B7: 11K2H1503/11K2L1338 (antibody, V domains shown)
VH: QVQLVQSGAEVKKPGSSVKVSCKASGLTISHTYMHWVRQAPGQGLEWMGRIDPDNHNTKFDPKFQGRVTITADTSTSTAYMELSSLRSEDTAVYYCARGVFGFFDHWGQGTTVTVSS
VL: DIQMTQSPSSLSASVGDRVTITCKAFEDIYNRRAWYQQKPGKAPKLLIHGATSLEHGVPSRFSGSGSGTDYTLTISSLQPEDFATYYCQQFWSAPYTFGGGTKVEIK
notes: also called modified 11K2 variant (VH H1503 / VL L1338)
B7: in assay [5], the “Affinity relative to parent 11K2” value is 0.2.

B8: 11K2//1G9-PGLALA (bispecific antibody, V domains shown)
VH 1: B7 VH with H31D, D54A, H56G, H106Y
VL 1: B7 VL with F26T, R33L, H49S, H56T
VH 2: QSLEESGGDLVKPGASLTLTCKASGIDFSLYSYMCWVRQAPGKGLEWIACVDAGASGSTYYASWAKGRFTISKTSSTTVTLQMTSLTAADTATYFCARGILYYTWPYPAGAIDAFDSWGPGTLVTVSS
VL 2: AYDMTQTPASVSEPVGGTVTIKCQASESISNYLSWYQQKPGQPPKLLIYKASTLASGVPSRFKGSGSGTEYTVTISGVQSDDAATYYCQQSYSSSNVFNTFGGGTEVVVK
notes: CrossMab, IgG1 with L234A, L235A, P329G, knobs-into-holes; crossed arm humanized 11K2, non-crossed arm 1G9; also called CCL2-0043; P1AA3463
With B8, the binding result in assay [6] is reported as “binds”.

B9: 11K2H1510/11K2L1338 (antibody, V domains shown)
VH: B7 VH with D105E
VL: B7 VL
notes: also called modified 11K2 variant (VH H1510 / VL L1338)
Regarding B9, in assay [5], the “Affinity relative to parent 11K2” value is below 0.01.

B10: 11K2H1514/11K2L1338 (antibody, V domains shown)
VH: B7 VH with D54E, D105E
VL: B7 VL
notes: also called modified 11K2 variant (VH H1514 / VL L1338)
As to B10, in assay [5], the “Affinity relative to parent 11K2” value was 0.02.

B11: 11K2H1503/11K2L1201 (antibody, V domains shown)
VH: B7 VH
VL: B7 VL with F26T, R33L, W92R
notes: also called modified 11K2 variant (VH H1503 / VL L1201)
In the case of B11, the “Affinity relative to parent 11K2” value in assay [5] was 0.05.

B12: 1A4 (antibody, V domains shown)
VH: QSLEESGGDLVKPGASLTLTCTASELDFYWICWVRQAPGKGLEWIACIGAGSSGSTYYASWAKGRFTVSKTSSTTVTLQMTSLTAADTATYFCARTGTEFTYYSLWGPGTLVTVSS
VL: ALVMTQTPSSVSAAVGGTVTINCQASQSVYNNNMAWYQQKPGQPPKLLIYTASSLASGVPSHFRGSGSGTQFTLTISDLESDDAATYYCAGYKSYSNDEYGFGGGTEVVVK
notes: which format stood in each assay is not always stated; also called CCL2-0008
B12: the dissociation constant Kd in assay [1] was 0.073 nM; in assay [2], 0.059 nM. Moreover, the “T1/2” value in assay [1] is 1.67 h; in assay [2] it was 2.9 h. The “THP1 chemotaxis [fold change compared to IgG control]” value in assay [3] worked out at 4.5 fold.

B13: CKLO2-IgG1 (bispecific antibody)
heavy 1: not shown
heavy 2: not shown
light 1: QVQLVQSGAEVKKPGSSVKVSCKASGLTISHTYMHWVRQAPGQGLEWMGRIDPDNHNTKFDPKFQGRVTITADTSTSTAYMELSSLRSEDTAVYYCARGVFGFFEHWGQGTTVTVSSASVAAPSVFIFPPSDEQLKSGTASVVCLLNNFYPREAKVQWKVDNALQSGNSQESVTEQDSKDSTYSLSSTLTLSKADYEKHKVYACEVTHQGLSSPVTKSFNRGEC
light 2: EIVLTQSPATLSLSPGERATLSCRASQHVSDAYLAWYQQKPGQAPRLLIYDASDRAEGVPARFSGSGSGTDFTLTISSLEPEDFAVYYCHQYIHLHSFTFGQGTKVEIKRTVAAPSVFIFPPSDRKLKSGTASVVCLLNNFYPREAKVQWKVDNALQSGNSQESVTEQDSKDSTYSLSSTLTLSKADYEKHKVYACEVTHQGLSSPVTKSFNRGEC
Regarding B13, the “IC50, inhibition of THP-1 migration (chemotaxis assay)” value (shortened to “IC50, inhibition of THP-1 migration”) in assay [7] is 0.2 µg/mL.

B14: CKLO2-GG01 (=P1AF8137) (bispecific antibody)
heavy 1: DIQMTQSPSSLSASVGDRVTITCKAFEDIYNRRAWYQQKPGKAPKLLIHGATSLEHGVPSRFSGSGSGTDYTLTISSLQPEDFATYYCQQFWSAPYTFGGGTKVEIKSSASTKGPSVFPLAPSSKSTSGGTAALGCLVKDYFPEPVTVSWNSGALTSGVHTFPAVLQSSGLYSLSSVVTVPSSSLGTQTYICNVNHKPSNTKVDKKVEPKSCDKTHTCPPCPAPEYLGGDSVFLFPPKPKDVLMISRTPEVTCVVIDVSHEDPEVKFNWYVDGVEVHNAKTKPREEQYNSTYRVVSVLPVLHRDWLNGKEYKCKVSNKALPKPIEKTISKAKGQRREPQVYTLPPCRDELTKNQVSLWCLVKGFYPSDIAVEWESNGQPENNYKTTPPVLDSDGSFFLYSKLTVDKSRWQQGNVFSCSVMHEALHAHYTRKELSLSP
heavy 2: not shown
light 1: B13 light 1
light 2: B13 light 2
B14: the “IC50, inhibition of THP-1 migration” value in assay [7] amounted to 0.2 µg/mL.

B15: CKLO2-SG1095 (=P1AD8325) (bispecific antibody)
heavy 1: B14 heavy 1 with Y226L, L227W, G228N, D230P, V242T, I256V, H260D, Q287L, P299T, K318T
heavy 2: not shown
light 1: B13 light 1
light 2: B13 light 2
B15: in assay [8], the “Depletion level max (%) of CCL2 from the supernatant” value is 85% and the “EC50 [nM] of CCL2 depletion” value came to 0.5 nM. Also, in assay [7], the “IC50, inhibition of THP-1 migration” value was found to be 0.2 µg/mL.
